Five molecules from patent publication US20100249021A1 can be followed below.

Holding throughout (test): cell-based or functional assay
Experiment [1] has as its target membrane protein HA of recombinant avian influenza virus QH-WSN (HA of H5N1 strain A/bar-headed goose/Qinghai/1/05) (avian influenza virus H5N1, strain A/bar-headed goose/Qinghai/1/05).
For experiment [2], the target named is membrane protein HA of recombinant human influenza virus A/WSN/33 (H1N1) (human influenza virus A/WSN/33 (H1N1)) (UniProt P03454).
In experiment [3] the target is membrane protein HA of recombinant avian influenza virus QH-WSN (HA of H5N1 strain A/bar-headed goose/Qinghai/1/05) (avian influenza virus H5N1, strain A/bar-headed goose/Qinghai/1/05). The source holds these as a separate data set.
In experiment [4] the target is membrane protein HA of recombinant human influenza virus A/WSN/33 (H1N1) (human influenza virus A/WSN/33 (H1N1)) (UniProt P03454). This is another data set of the same source.

As for “fusion protein HR1-EGFP expressed on the membrane of MDCK cells (from UniProt P08138 251-272)”, the plaque inhibitory rate on cells expressing the fusion protein in experiment [1] came out at 25%; in experiment [2] it was 11%.
Consider “fusion protein HR2-EGFP expressed on the membrane of MDCK cells (from UniProt P08138 251-272)”, for which the figures for the plaque inhibitory rate on cells expressing the fusion protein in experiment [1] and in experiment [2] were 57.8% and 43%, respectively.

B1: polypeptide HR1 combined with HR2B (peptide)
peptide 1: KESTQKAIDGVTNKVNSIIDK
peptide 2: NAELLVLMENERTLDFHDSNVKN
On to B1, for which the IC50, plaque inhibition on MDCK cells, peptide combination in experiment [3] was determined as 36.7 µM; in experiment [4], 62.5 µM.

B2: polypeptide HR1 combined with HR2C (peptide)
peptide 1: KESTQKAIDGVTNKVNSIIDK
peptide 2: FHDSNVKNLYDKVRLQ
With B2, the IC50, plaque inhibition on MDCK cells, peptide combination in experiment [3] amounted to 41.6 µM; in experiment [4] it was 30 µM.

B3: polypeptide HR1 combined with HR2A (peptide)
peptide 1: KESTQKAIDGVTNKVNSIIDK
peptide 2: RRIENLNKKMEDGFLDVWTY
Turning to B3, the values for the IC50, plaque inhibition on MDCK cells, peptide combination in experiment [3] and in experiment [4] were 43.6 µM and 52.9 µM, respectively.
